The data set can be described thus: protein stability index of a GFP-peptide fusion (yeast GPS) (PSI 1-4); higher = more stable; sorted into four equal gates, so the index is relative within each strain. The method, boiled down:
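Yeast carrying a pooled library were grown to mid-log phase in leucine-free medium. Each library plasmid expresses Cherry and has a tiled 17-residue yeast protein peptide fused downstream of GFP. Cells were sorted into four equal gates by GFP/Cherry ratio, and plasmids from each gate were PCR-amplified, Illumina-sequenced and assigned to strains by barcode. Summing, across gates, the read frequency times the gate number gave each peptide's protein stability index.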

± gives the uncertainty stated by the source.

As for SLHPLFEQFEKFYEEKL [RPN9], the protein stability index worked out at 2.67 ± 0.24 (doa10∆) and 2.9 ± 0.16 (pdr5∆).
SLIRNNLHAEGWPKLQL [ECM29] displayed a protein stability index (doa10∆) of 1.15 ± 0.056, a protein stability index (pdr5∆) of 1.25 ± 0.081, a protein stability index (san1∆) of 1.32 ± 0.17 and a protein stability index (ubr1∆) of 1.04 ± 0.085.
Regarding SLKALASKYNCDKSVCR [RPL40A], the protein stability index is 3.08 ± 0.069 (doa10∆), 2.97 ± 0.089 (pdr5∆), 3.12 ± 0.054 (san1∆) and 2.94 ± 0.087 (ubr1∆).
Turning to SLLESGSEILGDLKLQV [RPO21], the protein stability index reads like this: (doa10∆) 3.59 ± 0.27; (pdr5∆) 3.58 ± 0.14; (san1∆) 2.53 ± 0.21; (ubr1∆) 3.02 ± 0.18.
For SLLLKNYLNDMHDSNLQ [SKP1], the protein stability index by setting is: (doa10∆) 2.31 ± 0.093; (pdr5∆) 2.48 ± 0.05; (san1∆) 1.81 ± 0.093; (ubr1∆) 2.08 ± 0.05.
With SLMDTLITPAVRNTAPN [YCG1], the protein stability index (doa10∆) came out at 1.6 ± 0.061, the protein stability index (pdr5∆) is 1.73 ± 0.082, the protein stability index (san1∆) is 1.26 ± 0.19 and the protein stability index (ubr1∆) was 1.92 ± 0.058.
The like results for SLMSSQNKLFYITNADD [SIR3] were, in that order, 2.77 ± 0.15, 2.02 ± 0.12, 3.07 ± 0.16 and 1.49 ± 0.095.
SLNLQYVNYEISTAKAW [YML103C/NUP188] gave a protein stability index (doa10∆) of 2.6 ± 0.055, a protein stability index (pdr5∆) of 2.93 ± 0.082, a protein stability index (san1∆) of 2.55 ± 0.074 and a protein stability index (ubr1∆) of 2.69 ± 0.058.
The corresponding values for SLNLTDDVISNAGTNDN [MCD1] are 2.88 ± 0.047, 2.97 ± 0.057, 3.11 ± 0.036 and 2.96 ± 0.041.
The corresponding values for SLNSMTNAKLPNVDLVT [RGR1] are 2.53 ± 0.087, 2.74 ± 0.064, 2.52 ± 0.061 and 2.46 ± 0.041.
SLQNNLQNNINNSNNNN [SNF11]: the protein stability index is, setting by setting: (doa10∆) 3.19 ± 0.078; (pdr5∆) 3.27 ± 0.099; (san1∆) 3.31 ± 0.066; (ubr1∆) 3.29 ± 0.062.
Turning to SLRRIRDEMSKAELPQW [MED8], the protein stability index amounted to 1.98 ± 0.071 (doa10∆), 2.36 ± 0.055 (pdr5∆), 2.33 ± 0.072 (san1∆) and 1.92 ± 0.04 (ubr1∆).
In the case of SLSDELNLDEIVACELI [YJL039C/NUP192], the protein stability index came to 2.75 ± 0.13 (doa10∆), 2.53 ± 0.1 (pdr5∆) and 2.61 ± 0.14 (ubr1∆).
As for SLTYKKISLRDICLKLN [RPN3], the protein stability index is, setting by setting: (doa10∆) 2.38 ± 0.05; (pdr5∆) 2.17 ± 0.047; (san1∆) 1.44 ± 0.13; (ubr1∆) 2.05 ± 0.04.
Take SLYQVDPSGSYFPWKAT [PRE8]: the protein stability index amounted to 2.87 ± 0.1 (doa10∆), 2.66 ± 0.11 (pdr5∆), 2.65 ± 0.093 (san1∆) and 3.25 ± 0.099 (ubr1∆).
Consider SLYTNTSRKALEEVSLK [RPL3], for which the protein stability index reads like this: (pdr5∆) 2.38 ± 0.13; (san1∆) 2.33 ± 0.14; (ubr1∆) 1.83 ± 0.19.
In the case of SLYTSREPRVVSALQML [PUP1], the protein stability index runs as follows: (doa10∆) 2.66 ± 0.11; (pdr5∆) 2.86 ± 0.065; (san1∆) 3.03 ± 0.061; (ubr1∆) 2.92 ± 0.048.
For SMDVDDKNSGVKSEVDV [ITC1], the protein stability index was determined as 2.52 ± 0.076 (doa10∆), 1.64 ± 0.039 (pdr5∆), 1.78 ± 0.094 (san1∆) and 2.5 ± 0.043 (ubr1∆).
As for SMILIQQTEKLNPQVAD [RPN2], the protein stability index runs as follows: (doa10∆) 1.53 ± 0.041; (pdr5∆) 1.67 ± 0.044; (san1∆) 1.65 ± 0.073; (ubr1∆) 1.63 ± 0.03.
As to SMRVKPSASLKLHHDLK [YMR129W/POM152], the protein stability index is, setting by setting: (doa10∆) 3.14 ± 0.079; (pdr5∆) 2.98 ± 0.064; (san1∆) 2.95 ± 0.062; (ubr1∆) 3.1 ± 0.048.
For SMSGRISAKDMGQGLCN [BRR2], the protein stability index was 3 ± 0.11 (doa10∆), 3.03 ± 0.084 (pdr5∆), 3.02 ± 0.076 (san1∆) and 3.19 ± 0.078 (ubr1∆).
On to SMSLQSKNLGEINTALN [SWI1], for which the protein stability index stood at 2.81 ± 0.12 (doa10∆), 2.9 ± 0.1 (pdr5∆) and 3.08 ± 0.12 (ubr1∆).
Take SMTATADVLAMAKVEVN [RIP1]: the protein stability index by setting is: (doa10∆) 1.99 ± 0.12; (pdr5∆) 2.4 ± 0.11; (san1∆) 2.43 ± 0.15; (ubr1∆) 2 ± 0.074.
For the sequence SNDSQSHFDYNTLEFII [YCG1], the protein stability index is 2.52 ± 0.2 (doa10∆), 2.78 ± 0.19 (pdr5∆) and 2.89 ± 0.14 (ubr1∆).

The values are drawn from the supplement of paper PMC9732359.
